Laboratory results from US20250235548A1, “ANTIBODY-DRUG CONJUGATES TARGETING NAPI2B AND METHODS OF USE” (Zymeworks BC Inc., priority 2022, published 2025).
Changes are numbered by the printed parent chain. One block for each molecule: values may come before it.

Experiments:
[1] = Thermal stability by differential scanning calorimetry (Example 8); assay type: physicochemical; conditions: DSC, 0.4 mg/mL in PBS, 20° C. to 100° C. at 60° C./hr
Description: The thermal stability of the humanized antibody variants was assessed by differential scanning calorimetry (DSC) as described below.
400 μL of purified samples primarily at concentrations of 0.4 mg/mL in PBS were used for DSC analysis with a VP-Capillary DSC (Malvern Panalytical Inc., Westborough, MA). At the start of each DSC run, 5 buffer blank injections were performed to stabilize the baseline, and a buffer injection was placed before each sample injection for referencing. Each sample was scanned from 20° C. to 100° C. at a 60° C./hr rate, with low feedback, 8 sec filter, 3 min pre-scan thermostat, and 70 psi nitrogen pressure. The resulting thermograms were referenced and analyzed using Origin 7 software (OriginLab Corporation, Northampton, MA) to determine melting temperature (Tm) as an indicator of thermal stability.

[2] = target: T1, NaPi2b expressed on IGROV-1 cells (Homo sapiens, UniProt O95436); assay: Cellular binding of bivalent antibodies by flow cytometry (Example 16); conditions: NB = no cellular binding; for Bmax, IGROV-1: AF647 GeoMean, 24 hours at 4° C.
T1 construct: endogenous NaPi2b-expressing cancer cell lines IGROV-1 (ovarian carcinoma); endogenous in cells; host or cells: IGROV-1
T1 sequence (O95436 1-690): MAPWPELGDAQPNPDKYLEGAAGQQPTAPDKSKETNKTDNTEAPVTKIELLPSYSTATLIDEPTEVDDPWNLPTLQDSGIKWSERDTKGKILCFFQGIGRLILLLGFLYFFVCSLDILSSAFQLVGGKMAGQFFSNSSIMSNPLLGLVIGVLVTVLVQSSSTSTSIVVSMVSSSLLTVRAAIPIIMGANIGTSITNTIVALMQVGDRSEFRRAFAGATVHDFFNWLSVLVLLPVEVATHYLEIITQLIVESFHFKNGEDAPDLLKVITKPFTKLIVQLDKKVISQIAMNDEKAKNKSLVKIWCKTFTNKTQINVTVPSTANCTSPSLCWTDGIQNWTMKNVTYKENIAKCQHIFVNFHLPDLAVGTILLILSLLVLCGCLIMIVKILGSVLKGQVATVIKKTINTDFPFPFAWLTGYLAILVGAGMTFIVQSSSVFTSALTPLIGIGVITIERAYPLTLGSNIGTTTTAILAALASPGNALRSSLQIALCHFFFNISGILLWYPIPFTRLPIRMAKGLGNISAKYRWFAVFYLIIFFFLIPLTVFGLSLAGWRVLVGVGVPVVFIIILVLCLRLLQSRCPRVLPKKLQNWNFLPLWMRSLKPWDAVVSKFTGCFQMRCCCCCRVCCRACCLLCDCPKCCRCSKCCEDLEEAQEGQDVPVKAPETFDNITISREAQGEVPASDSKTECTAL
Description: IGROV-1 cells express endogenous NaPi2b at a high level.
Briefly, cells were seeded at 50,000 cells/well in conical-bottom 96-well plates and treated with test antibody for 24 hours at 4° C. to prevent internalization. […] Following incubation and washing, fluorescence was detected by flow cytometry on a BD LSRFortessa™ Cell Analyzer (BD Biosciences, Franklin Lake, NJ) with 1,000 minimum events collected per well.

Bmax, IGROV-1 [2]: 44,480
Curve Hill Slope (h), IGROV-1 [2]: 1.2
B1: v29453: "Representative humanized antibody variants ... of the mouse antibody" that specifically binds hNaPi2b (antibody, V domains shown)
VH: QVQLVQSGAEVKKPGASVKMSCKASGFTFTSYNVHWVRQAPGQGLEWIAAISPGNGDLSYAQKFQGRATLTVDRSTSTAYMELSSLRSEDTAVYYCARGRTGMGAVDYWGQGTLVTVSS
VL: DVQMTQSPSSLSASVGDRVTITCRASQDVYSYLNWYQQKPGKAVKLLIYYTSRLQSGVPSRFSGSGSGTDYTLTISSLQPEDFATYYCQQYNIFPWTFGQGTKLEIK
modifications: v29449, v29453, v29457 VH (H4); v29453, v29454, v29455, v29456 VL (L2)
Fab Tm (° C.) [1]: 78.9 °C

Bmax, IGROV-1 [2]: 43,809
Curve Hill Slope (h), IGROV-1 [2]: 1.2
B2: v29450: "Representative humanized antibody variants ... of the mouse antibody" that specifically binds hNaPi2b (antibody, V domains shown)
VH: B1 VH with R74T
VL: B1 VL with F83I
modifications: v29450, v29454, v29458 VH (H3); v29449, v29450, v29451, v29452 VL (L3)
Fab Tm (° C.) [1]: 81.0 °C

Bmax, IGROV-1 [2]: 41,917
Curve Hill Slope (h), IGROV-1 [2]: 1.1
B3: v29455: "Representative humanized antibody variants ... of the mouse antibody" that specifically binds hNaPi2b (antibody, V domains shown)
VH: B1 VH with M20V, A68V, L70M, R74T, A79V
VL: B1 VL
modifications: v29451, v29455, 29459 VH (H2); v29453, v29454, v29455, v29456 VL (L2)
Fab Tm (° C.) [1]: 81.5 °C

Bmax, IGROV-1 [2]: 44,460
Curve Hill Slope (h), IGROV-1 [2]: 1.3
B4: v29449: "Representative humanized antibody variants ... of the mouse antibody" that specifically binds hNaPi2b (antibody, V domains shown)
VH: B1 VH
VL: B1 VL with F83I
modifications: v29449, v29453, v29457 VH (H4); v29449, v29450, v29451, v29452 VL (L3)
Fab Tm (° C.) [1]: 80.0 °C

Bmax, IGROV-1 [2]: 40,071
Curve Hill Slope (h), IGROV-1 [2]: 1.2
B5: v29460: "Representative humanized antibody variants ... of the mouse antibody" that specifically binds hNaPi2b (antibody, V domains shown)
VH: B1 VH with M20V, I48M, A49G, A68V, L70M, V72R, R74T, A79V
VL: B1 VL with V2I, V44P, Y71F
modifications: v29452, v29456, v29460 VH (H1); v29457, v29458, v29459, v29460 VL (L1)
Fab Tm (° C.) [1]: 80.3 °C

Bmax, IGROV-1 [2]: 40,793
Curve Hill Slope (h), IGROV-1 [2]: 1.1
B6: v29458: "Representative humanized antibody variants ... of the mouse antibody" that specifically binds hNaPi2b (antibody, V domains shown)
VH: B1 VH with R74T
VL: B1 VL with V2I, V44P, Y71F
modifications: v29450, v29454, v29458 VH (H3); v29457, v29458, v29459, v29460 VL (L1)
Fab Tm (° C.) [1]: 81.6 °C

Bmax, IGROV-1 [2]: 46,170
Curve Hill Slope (h), IGROV-1 [2]: 1.1
B7: v29451: "Representative humanized antibody variants ... of the mouse antibody" that specifically binds hNaPi2b (antibody, V domains shown)
VH: B1 VH with M20V, A68V, L70M, R74T, A79V
VL: B1 VL with F83I
modifications: v29451, v29455, 29459 VH (H2); v29449, v29450, v29451, v29452 VL (L3)
Fab Tm (° C.) [1]: 83.0 °C

Bmax, IGROV-1 [2]: 44,539
Curve Hill Slope (h), IGROV-1 [2]: 1.0
B8: v29457: "Representative humanized antibody variants ... of the mouse antibody" that specifically binds hNaPi2b (antibody, V domains shown)
VH: B1 VH
VL: B1 VL with V2I, V44P, Y71F
modifications: v29449, v29453, v29457 VH (H4); v29457, v29458, v29459, v29460 VL (L1)
Fab Tm (° C.) [1]: 80.5 °C

Bmax, IGROV-1 [2]: 42,278
Curve Hill Slope (h), IGROV-1 [2]: 1.0
B9: v29454: "Representative humanized antibody variants ... of the mouse antibody" that specifically binds hNaPi2b (antibody, V domains shown)
VH: B1 VH with R74T
VL: B1 VL
modifications: v29450, v29454, v29458 VH (H3); v29453, v29454, v29455, v29456 VL (L2)
Fab Tm (° C.) [1]: 79.7 °C
